In patent publication US20120301468A1 (Bayer, published 2012):

B1: 3ee9/MMAE (3ee9 human IgG1 conjugated to monomethylauristatin E) (antibody, V domains shown)
VH: QVELVESGGGLVQPGGSLRLSCAASGFTFSSYGMSWVRQAPGKGLEWVSGISSLGSTTYYADSVKGRFTISRDNSKNTLYLQMNSLRAEDTAVYYCARTGSPGTFMHGDHWGQGTLVTVSS
VL: DIQMTQSPSSLSASVGDRVTITCRASQDINNYLSWYQQKPGKAPKLLIYGASNLQSGVPSRFSGSGSGTDFTLTISSLQPEDFAVYYCQQYYGRPTTFGQGTKVEIKR
modifications: Monomethylauristatin E (MMAE) is conjugated to the antibody through a linker (FIG. 9). The chain and residues of attachment are not stated, and the letters do not carry the drug.
notes: Only CDRs are tied to the name; also called BAY 79-4620; 3ee9-IC
B2: 1aa1 Fab (Fab, V domains shown)
VH: ELVQSGAEVKKPGASVKVSCKASGYTFTTNYMHWVRQAPGQGLEWMGIINPHNGSTSYAQKFQGRVTMTRDTSISTAYMELSSLRSEDTAVYYCARGRYFLMDVWGQGTLVTVSS
VL: DIQMTQSPSSLSASVGDRVTITCRASQNILSYLNWYQQKPGKAPKLLIYAASSLQSGVPSRFSGSGSGTDFTLTISSLQPEDFAVYYCQQYGSVPTFGQGTKVEIK
notes: Only CDRs are tied to the name
B3: 5a6 Fab (Fab, V domains shown)
VH: ELVQSGAEVKKPGESLKISCKGSGYSFSKYWIGWVRQMPGKGLEWMGIIYPTDSYTRYSPSFQGQVTISADKSISTAYLQWSSLKASDTAMYYCARTHGYYKNGRMDVWGQGTLVTVSS
VL: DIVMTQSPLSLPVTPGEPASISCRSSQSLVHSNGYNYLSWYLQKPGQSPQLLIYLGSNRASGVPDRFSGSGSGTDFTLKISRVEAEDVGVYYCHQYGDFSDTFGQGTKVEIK
notes: as for B2
B4: 3ef2 Fab (Fab, V domains shown)
VH: ELVESGGGLVQPGGSLRLSCAASGFTFSSYGMHWVRQAPGKGLEYVSAISYSSSSTSYADSVKGRFTISRDNSKNTLYLQMNSLRAEDTAVYYCARLSYTGFAVWGQGTLVTVSS
VL: DIELTQPPSVSVAPGQTARISCSGDNLGSYYVHWYQQKPGQAPVLVIYDDNNRPSGIPERFSGSNSGNTATLTISGTQAEDEADYYCQSYDFGKVVFGGGTKLTVL
notes: as for B2
B5: 1aa1 full-length human IgG1 (antibody, V domains shown)
VH: QVELVQSGAEVKKPGASVKVSCKASGYTFTTNYMHWVRQAPGQGLEWMGIINPHNGSTSYAQKFQGRVTMTRDTSISTAYMELSSLRSEDTAVYYCARGRYFLMDVWGQGTLVTVSS
VL: B2 VL
notes: Full-length human IgG1 made from the Fab; Only CDRs are tied to the name
B6: 1e4 Fab (Fab, V domains shown)
VH: ELVESGGGLVQPGGSLRLSCAASGFTFSNNAMNWVRQAPGKGLEWVSGISYDSSKTYYADSVKGRFTISRDNSKNTLYLQMNSLRAEDTAVYYCARLTYTGAYRWGQGTLVTVSS
VL: B4 VL
notes: as for B2
B7: 1aa1 immunoconjugate (antibody, human IgG1, V domains shown)
VH: B5 VH
VL: B2 VL
modifications: A cytotoxic drug (MMAE by paragraph 261) is conjugated to the IgG1. The chain and residues of attachment are not stated, and the letters do not carry the drug.
notes: Human IgG1 1aa1 conjugated to a cytotoxic drug; Only CDRs are tied to the name
B8: 1e4 full-length human IgG1 (antibody, V domains shown)
VH: B6 VH
VL: B4 VL
notes: Full-length human IgG1 made from the Fab (IgG1 constant region PIR J00228); Only CDRs are tied to the name; also called monoclonal IgG1 1e4; anti-MN antibody 1e4
B9: 3ab4 Fab (Fab, V domains shown)
VH: ELVESGGGLVQPGGSLRLSCAASGFTFSSYGISWVRQAPGKGLEWVSGISYSGSSTYYADSVKGRFTISRDNSKNTLYLQMNSLRAEDTAVYYCARLKPYRHKNGWFDYWGQGTLVTVSS
VL: DIQMTQSPSSLSASVGDRVTITCRASQNISNYLNWYQQKPGKAPKLLIHKVSNLQSGVPSRFSGSGSGTDFTLTISSLQPEDFAVYYCLQYDDFPRTFGQGTKVEIK
notes: as for B2
B10: 3ah10 Fab (Fab, V domains shown)
VH: ELVESGGGLVQPGGSLRLSCAASGFTFSSYGISWVRQAPGKGLEWVSSISYSGSNTYYADSVKGRFTISRDNSKNTLYLQMNSLRAEDTAVYYCARMKPMRGYSGAVWGQGTLVTVSS
VL: DIQMTQSPSSLSASVGDRVTITCRASQDISNRLAWYQQKPGKAPKLLIYDANSLQSGVPSRFSGSGSGTDFTLTISSLQPEDFATYYCFQYSGPTFGQGTKVEIK
notes: as for B2
B11: 3bb2 Fab (Fab, V domains shown)
VH: ELVESGGGLVQPGGSLRLSCAASGFTFSNYGISWVRQAPGKGLEWVSAISYYGSNTYYADSVKGRFTISRDNSKNTLYLQMNSLRAEDTAVYYCARLKGGSGFVWGQGTLVTVSS
VL: DIVMTQSPLSLPVTPGEPASISCRSSQSLVYSNGNTTLSWYLQKPGQSPQLLIYGVSNRASGVPDRFSGSGSGTDFTLKISRVEAEDVGVYYCQQYNSFPRTFGQGTKVEIK
notes: as for B2
B12: 3ee9 Fab (Fab, V domains shown)
VH: ELVESGGGLVQPGGSLRLSCAASGFTFSSYGMSWVRQAPGKGLEWVSGISSLGSTTYYADSVKGRFTISRDNSKNTLYLQMNSLRAEDTAVYYCARTGSPGTFMHGDHWGQGTLVTVSS
VL: DIQMTQSPSSLSASVGDRVTITCRASQDINNYLSWYQQKPGKAPKLLIYGASNLQSGVPSRFSGSGSGTDFTLTISSLQPEDFAVYYCQQYYGRPTTFGQGTKVEIK
notes: only the CDRs are tied
B13: 3ee9 full-length human IgG1 (antibody, V domains shown)
VH: B1 VH
VL: B1 VL
notes: Only CDRs are tied to the name; also called unconjugated antibody 3ee9; antibody portion of 3ee9/MMAE
B14: 5aa3 full-length human IgG1 (antibody, V domains shown)
VH: QVELVQSGAEVKKPGESLKISCKGSGYSFTGYISWVRQAPGKGLEWMGIIYPGDSYTNYSPSFQGQVTISADKSISTAYLQWSSLKASDTAMYYCARYSGPNWDVMDSWGQGTLVTVSS
VL: DIVLTQPPSVSGAPGQRVTISCSGSSSNIGSYYVNWYQQLPGTAPKLLIYADDKRPSGVPDRFSGSKSGTSASLAITGLQSEDEADYYCQSYDSTKDDSVFGGGTKLTVL
notes: as for B5
B15: 3ef2 full-length human IgG1 (antibody, V domains shown)
VH: QVELVESGGGLVQPGGSLRLSCAASGFTFSSYGMHWVRQAPGKGLEYVSAISYSSSSTSYADSVKGRFTISRDNSKNTLYLQMNSLRAEDTAVYYCARLSYTGFAVWGQGTLVTVSS
VL: B4 VL
notes: as for B5

What was measured:
[1] = target: T1, human MN protein, entire extra-cellular domain with a C-terminal histag, expressed in HKB-11 cells (human, UniProt Q16790 38-414); test: Biacore (SPR), purified MN protein
[2] = target: T2, MN protein on the surface of MN-expressing (MN+) cells (PC3 mm2, MaTu) (human, UniProt Q16790 38-459); test: cell-based or functional assay
[3] = target: T1, human MN protein, entire extra-cellular …; test: BIAcore surface plasmon resonance; Fab captured on immobilized anti-human-Fab IgG, purified human MN (HKB-11) as analyte; 1:1 Langmuir fit
[4] = target: T1, human MN protein, entire extra-cellular …; test: BIAcore surface plasmon resonance; IgG captured on immobilized goat anti-human IgG Fc, purified human MN (HKB-11) as analyte; 1:1 Langmuir fit
[5] = target: T1, human MN protein, entire extra-cellular …; test: SPR, BIAcore 3000, IgG captured by anti-human IgG Fc, MN as analyte, 1:1 Langmuir fit
[6] = target: T2, MN protein on the surface of …; test: FACS on PC3mm2 (MN+) cells with DLD (MN-) cells as negative cells; traces not labelled on the sheet
[7] = target: T1, human MN protein, entire extra-cellular …; test: Biacore (SPR), purified MN protein; remark: listed apart in the source

| Binder | Kd [3] | Kd [5] | further results |
| --- | --- | --- | --- |
| B1 | – | – | Kd [1]: 3.6 nM; Cytotoxicity: MN+/MN- (ec50) [2]: 50 nM |
| B2 | 0.15 nM | – | – |
| B3 | 3.4 nM | – | – |
| B4 | 4.1 nM | – | – |
| B5 | – | 27 nM | Kd [4]: 49 nM |
| B6 | 1.4 nM | – | – |
| B7 | – | – | binding result [6]: binds |
| B8 | – | 5 nM | Kd [4]: 1 nM |
| B9 | 50 nM | – | – |
| B10 | 16 nM | – | – |
| B11 | 27 nM | – | – |
| B12 | 16 nM | – | – |
| B13 | – | 4 nM | Kd [4]: 5.9 nM; Kd [7]: 3.6 nM |
| B14 | – | 1 nM | – |
| B15 | – | 6 nM | – |
